± gives the uncertainty stated by the source.
Experiment: self-splicing fitness, log relative to wild type (ln ratio); higher = more splicing; Tetrahymena group I intron in knt gene, E. coli kanamycin selection, DiMSum; sequences stand for … in CUCUCU…GGAGGGAAAAGUUAUCAGGCAUGCACCUGGUAGCUAGUCUUUAAACCAAUAGAUUGCAUCGGUUUAAAAGGCAAGACCGUCAAAUUGCGGGAAAGGGGUCAACAGCCGUUCAGUACCAAGUCUCAGGGGAAACUUUGAGAUGGCCUUGCAAAGGGUAUGGUAAUAAGCUGACGGACAUGGUCCUAACCACGCAGCCAAGUCCUAAGUCAACAGAUCUUCUGUUGAUAUGGAUGCAGUUCACAGACUAAAUGUCGGUCGGGGAAGAUGUAUUCUUCUCAUAAGAUAUAGUCGGACCUCUCCUUAAUGGGAGCUAGCGGAUGAAGUGAUGCAACACUGGAGCCGCUGGGAACUAAUUUGUAUGCGAAAGUAUAUUGAUUAGUUUUGGAGUACUCGUGGUCG
How it was run: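 Library with all eight P1ex-region intron nucleotides randomised, intron inside the knt kanamycin-resistance gene on pET-22b(+), in E. coli BL21(DE3). Cells grew overnight at 37°C or 30°C on LB agar with or without 25 μg/mL kanamycin (plus 100 μg/mL carbenicillin, 50 μM IPTG, 0.2% rhamnose), in six replicate transformations. Pooled colonies were amplicon-sequenced on Illumina HiSeq 2500. DiMSum fitness is the error-weighted combination of wild-type-normalised replicate fold changes, kanamycin versus none.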

Sequence	self-splicing fitness (ln) (30 °C)	self-splicing fitness (ln) (37 °C)
CUGAAGCAAUAUUACGCGUG	-0.382 ± 0.041	0.0264 ± 0.063
CUGAAGCAAUAUUACGCUCU	-3.29 ± 0.25	-3.3 ± 0.47
CUGAAGCAAUAUUACGCUUA	-3.82 ± 0.3	-2.13 ± 0.23
CUGAAGCAAUAUUACGCUUC	-3.51 ± 0.19	-2.56 ± 0.19
CUGAAGCAAUAUUACGGGAC	-0.993 ± 0.072	-0.612 ± 0.1
CUGAAGCAAUAUUACGGGCA	-3.04 ± 0.22	-1.25 ± 0.2
CUGAAGCAAUAUUACGGGGA	-3.06 ± 0.43	-2.36 ± 0.37
CUGAAGCAAUAUUACGGUAG	-0.283 ± 0.054	-0.509 ± 0.061
CUGAAGCAAUAUUACGUACU	-3.61 ± 0.31	-2.92 ± 0.34
CUGAAGCAAUAUUACGUCCG	0.226 ± 0.083	0.658 ± 0.13
CUGAAGCAAUAUUACGUCUA	-0.846 ± 0.077	-0.487 ± 0.1
CUGAAGCAAUAUUACGUGCU	-4.66 ± 0.34	-2.95 ± 0.34
CUGAAGCAAUAUUACGUUAA	-3.39 ± 0.16	-2.65 ± 0.28
CUGAAGCAAUAUUACGUUAG	-0.376 ± 0.063	0.25 ± 0.096
CUGAAGCAAUAUUACGUUUU	-3.46 ± 0.2	-3.22 ± 0.17
CUGCAGCAAUAUUACGACGC	-3.79 ± 0.27	-3.06 ± 0.29
CUGCAGCAAUAUUACGACGU	-2.98 ± 0.18	-2.49 ± 0.29
CUGCAGCAAUAUUACGAGCU	-2.93 ± 0.18	-2.25 ± 0.21
CUGCAGCAAUAUUACGAUCU	-4.3 ± 0.43	-2.46 ± 0.27
CUGCAGCAAUAUUACGCCUA		-0.55 ± 0.23

Sequence	self-splicing fitness (ln) (30 °C)	self-splicing fitness (ln) (37 °C)
CUGCAGCAAUAUUACGCCUC	-4.25 ± 0.42	-2.16 ± 0.5
CUGCAGCAAUAUUACGCGCU	-2.68 ± 0.2	-2.27 ± 0.22
CUGCAGCAAUAUUACGCGGG	-3.94 ± 0.23	-1.65 ± 0.18
CUGCAGCAAUAUUACGCUAG	-3.01 ± 0.17	-2.02 ± 0.24
CUGCAGCAAUAUUACGCUAU	-4.29 ± 0.25	-3.04 ± 0.25
CUGCAGCAAUAUUACGCUCA		-2.21 ± 0.35
CUGCAGCAAUAUUACGCUUC		-1.03 ± 0.21
CUGCAGCAAUAUUACGGAAG	-1.56 ± 0.072	-0.784 ± 0.095
CUGCAGCAAUAUUACGGACC	-5.3 ± 0.36	-2.18 ± 0.31
CUGCAGCAAUAUUACGGCAC	-3.13 ± 0.14	-0.857 ± 0.12
CUGCAGCAAUAUUACGGCAU	-0.953 ± 0.057	-0.378 ± 0.071
CUGCAGCAAUAUUACGGCGU		-1.04 ± 0.32
CUGCAGCAAUAUUACGGUCC	-3.4 ± 0.23	-2.99 ± 0.37
CUGCAGCAAUAUUACGGUCU	-3.44 ± 0.17	-2.07 ± 0.2
CUGCAGCAAUAUUACGGUGG	-3.9 ± 0.19	-3.09 ± 0.24
CUGCAGCAAUAUUACGUCGA	-3.05 ± 0.12	-1.65 ± 0.1
CUGCAGCAAUAUUACGUGAC	-0.842 ± 0.063	0.23 ± 0.084
CUGCAGCAAUAUUACGUGCC	-2.23 ± 0.21	-2.26 ± 0.26
CUGCAGCAAUAUUACGUGUA	-3.82 ± 0.23	-2.63 ± 0.16

Reference: the supplement of paper PMC7877785
